Results from US20250188136A1, “AV3 MUTANT POLYPEPTIDES FOR PEST CONTROL” (Vestaron Corporation, priority 2021, published 2025).
Several values for one entry are separate records, joined by “and”; a condition that tells them apart may be missing. Identical values can stand only once. Entries after “also recorded” stand apart in the source; their conditions may differ. Ends that are not written are not given here.

What was measured:
[1] = Circular dichroism assay, melting temperature; assay type: physicochemical; details: 10 mM Na3PO4 solution, pH 5.9; 20° C. to 98° C.
Protocol: A JASCO J-1500 CD spectrometer (JASCO, 28600 Mary's Court, Easton, MD 21601 USA) was used to measure the CD spectrum and the secondary structure information of the Av3bM24, Av3bM165, Av3bM103, and Av3bM170 peptides (with Av3b as a comparator). The peptides were prepared in 10 mM Na3PO4 solution, pH 5.9, and loaded into the cuvette for CD spectrum measurement. Measurements were processed with a light wavelength scan ranging from 180 nm to 250 nm, with a 1 nm interval; the temperature graduate changed from 20° C. to 98° C., with 2° C. interval.

[2] = Thermo-stability at 54° C. in pH 4.0 solution; assay type: physicochemical; details: for peptide change on day 14: pH 4.0, 54° C., HPLC peak area, + mass increase, − mass loss; for thermo-stability at 54° C.: pH 4.0 solution, up to 14 days
Protocol: A thermo-stability study was performed for Av3b, Av3bM24, Av3bM165, Av3bM103, and Av3bM170 in a pH 4.0 solution at 54° C. for 0, 3, 7, 10, 12, and 14 days, with a caffeine internal control to cancel variation from evaporation. Samples of 1 mL were prepared in 1.5 mL microtube with sodium acetate buffer (NaOAc) at pH 4.0, containing 0.1 μg/μL of peptide, and 0.025 μg/μL of caffeine. The samples were incubated at 54° C. in a dry mixer. At 0, 3, 7, 10, 12, and 14 days, 20 μL of each sample was analyzed via analytic rpHPLC system to evaluate peptide loss. Each sample contained a fixed amount caffeine, which was used to compensate the peptide HPLC UV absorbance peak change due to volume change by evaporation. FIG. 68.

Spodoptera frugiperda = assay: Lepidoptera injection assay, fall armyworm (FAW); assay type: in vivo; details: third instar larva, 2 μL injection, scored at 24-hours post-injection
Protocol: (§1) An injection assay was performed on Helicoverpa zea (corn earworm or “CEW”) and Spodoptera frugiperda (fall armyworm or “FAW”). Injections comprised a given Av3b mutant peptide combined with water to arrive at the planned dose. The Av3b mutants included Av3bM24; Av3bM165; Av3bM103; and Av3bM170. Av3b was used as a control.
(§2) Insects were reared on an artificial diet prepared from General Purpose Lepidoptera diet (Frontier Scientific, Newark, DE 19713, product No. F9772) according to the manufacturer's instructions. To perform the insect injection bioassay, 5 mL of hot diet was dispensed into the well of a rearing tray (Bio-Service Inc., Bio-RT-32), with 8 wells per injection treatment. The hot diet was then allowed to cool and solidify. Next, third instar larva were incubated on ice in order to immobilize them. Injections were prepared on a hand-microapplicator with injection solution (>100 μL) in 1-cc all-glass syringe having a 30 gauge straight needle. Air bubbles were removed from the syringe, and the syringe was set it up on the microapplicator. Injection volume was adjusted in the microapplicator at 2 μL.
(§3) To inject the larva, the insects were picked up and positioned close to the injection needle. The needle was allowed to penetrate the cuticle of the third pro-leg of the larva. The injection knob of the microapplicator was then rotated to inject a 2 μL solution into hemolymph from the third pro-leg. After injection the larva maintained on the needle for a few seconds to make sure the injected solution was absorbed. Then, the larva were gently removed from the needle and placed into the wells of prepared tray, along with 5 mL of solidified diet per well. Finally, the tray was sealed with vent covers.
(§4) Injected larva were incubated at 28° C. in an insect incubator, and scored at 24-hours post-injection based on their condition. Insect conditions were categorized as follows: alive (walking, eating, normal behavior); affected (showing toxic symptoms, such as tremors, writhing, unbalanced gait, or a combination thereof), knockdown (paralyzed albeit able to move with gentle poke); and dead (unmoving, discoloration, or a combination thereof).

[3] = Proteolytic resistance of Av3b mutants during production-strain fermentation (rpHPLC); assay type: physicochemical; details: for Degradation?: mutant strain fermentation at pH 6.5, 140 hours, rpHPLC; for degradation product during fermentation (HPLC): production strain fermentation at pH 6.5, rpHPLC
Protocol: The mutants in the table below were evaluated for stability in fermentation beer. Fermentation conditions and HPLC analysis were performed as described above. The mutant production strains were generated using YCT306 K. lactis strain. The production of mutants was performed as described in Example 2; fermentation conditions were performed using the same fermentation process described above regarding the Av3b production strain, with pH control at pH 6.5. […] To identify the mutant with proteolytic resistance, the mutant strains were grown under the same fermentation conditions as Av3b, and samples were taken throughout the fermentation process. The samples taken at 140 hour of fermentation process were analyzed in rpHPLC.

[4] = DASbox small-scale fermentation, degradation by HPLC and LC/MS; assay type: physicochemical; details: DASbox fed batch fermentation runs
Protocol: DASbox® is a parallel bioreactor system (Eppendorf, 175 Freshwater Blvd, Enfield, CT 06082, USA). The DASbox system used here contains 8 fermentation vessels with 250 mL volume capacity, allowing 8 small scale fermentation runs simultaneously. The DASbox fermentation runs were performed according to the manufacturer's instructions, and using the fermentation conditions described herein.
The screening of the Av3b mutants was conducted using a fed batch process in aerobic bioreactor. Reactors were initially filled to ˜45% capacity with a rich culture media containing 5-20 g/L of a carbon source such as glucose, sorbitol, or lactose, 5-20 g/L phosphoric acid, 0.1-1.5 g/L Calcium sulfate, 5-15 g/L Potassium sulfate, 0.5-10 g/L Magnesium sulfate heptahydrate, 1-5 g/L potassium hydroxide, and 10-60 g/L of corn steep liquor. The temperature of the reactor was maintained between 25-35° C. for the duration of the fermentation. The pH was held constant between 4-5.5 with the addition of 15% ammonium hydroxide. Dissolved oxygen was held constant by sparging air between 0.5-1.5 volume/volume/min and by increasing agitation to maintain a set point of 10-30%.
Inoculation of the reactor was from an overnight seed culture containing 5-40 g/L of a carbon source such as glucose, sorbitol, or lactose, and 5-40 g/L of corn steep liquor. Inoculation percentage ranged from 5-20% of initial fill volume. Once inoculated, the reactor was fed with a 70% solution of the selected carbon source until the reactor was filled and/or desired supernatant peptide concentration was achieved, approximately 96-140 hours and 0.8-1.2 g/L, respectively.

Helicoverpa zea = assay: Lepidoptera injection assay, corn earworm (CEW); assay type: in vivo; details: for KD50 CEW: third instar larva, 2 μL injection, scored at 24-hours post-injection; for knock-down effects compared to Av3b: CEW and FAW injection, KD50
Protocol: as §1, §2, §3, §4

[5] = Stability of purified peptide spiked into Av3b fermentation beer (rpHPLC); assay type: physicochemical
Protocol: To determine the stability of the new mutants, Av3bM19, Av3bM23, Av3bM24, Av3bM25, Av3bM27, and Av3bM28 were purified and incubated in Av3b fermentation beer. The mutants were purified by cation-exchange chromatography using a GE SP-Sephadex C-25 column. The column was first calibrated with 30 mM sodium citrate buffer at pH 3.0. Then, the culture supernatant containing the secreted mutant peptide was loaded into the column to let the mutant peptide bind to the resin. The column was then washed with 30 mM sodium citrate buffer, pH 3.0, followed by washing with 30 mM sodium acetate, pH 4.0. Next, the bound mutant peptide was eluted by 1 M or 2 M NaCl with 30 mM sodium acetate, pH 4.0. The elution was then concentrated and buffer-exchanged to 30 mM sodium acetate, pH 4.0 using a 1 kD cutoff spin concentrator.
After purification, each of the mutants, Av3bM19, Av3bM23, Av3bM24, Av3bM25, Av3bM27, and Av3bM28, were evaluated for stability by spiking them into Av3b strain fermentation beer at pH 6.5. As a negative control, Av3b was evaluated in a pH 4.0 buffer. As a positive control, purified Av3b was evaluated by spiking into the same Av3b fermentation beer at pH 6.5. All stability experiments were performed at room temperature. […] The amount of peptide remaining relative to the beginning was determined by normalizing the peak area at different time to the one at 0 hour for each treatment. The degradation trend is visualized by the bar graph of the relative remaining peptide amount trend.

[6] = Stability of Av3b mutants in insect gut extract; assay type: in vitro ADME, Helicoverpa zea; details: H. zea gut extract, room temperature
Protocol: To test the stability of the Av3b mutants in the gut enzymes of a lepidopteran pest, the gut extract were prepared from Helicoverpa zea (Corn Earworm or “CEW”). Corn Earworm insects were obtained commercially from Benzon Research (Carlisle, PA) as eggs. Hatched larvae were raised on artificial diet until ⅘^th instar (20 mm long) before guts were isolated. Before gut extraction, larvae were anesthetized using CO2. The larva was then pinned on the dissection plate at both the head and the tail. Using dissection scissors, the cuticle was nicked. The dissection scissors were then inserted into the nick and the […] along the insect. The cuticle was then carefully pulled back and pinned open to reveal the digestive track. Using DI water, the insect was thoroughly rinsed to remove hemolymph.
After the insect guts were extracted from the larva, they were spun at 15000 rpm for 5 minutes. The resulting supernatant is the “insect gut extract” that was used to determine peptide stability. Av3b mutant peptide was mixed with the gut extract to […] of 2 μg/μL, and incubated at room temperature. At time points between 0-100 hours, 6 μL of a given sample was mixed with 93 μL dH2O followed by the addition of 1 μL of a 2% trifluoracetic acid solution to stop the reaction. The sample was then analyzed by rpHPLC to determine the peptide loss during the gut extract treatment.

| Sequence | CD Melting temperature [1] [°C] | peptide change on day 14 [2] | thermo-stability at 54° C. [2] | KD50 FAW (Spodoptera frugiperda) | Degradation? [3] | degradation product during fermentation (HPLC) [3] | degradation detected via HPLC and LC/MS [4] | KD50 CEW (Helicoverpa zea) | half-degradation time ([5]; Av3b production fermentation beer pH 6.5, room temperature (Example 11, FIG. 37)) | half-degradation time ([5]; Av3b production fermentation beer pH 6.5, room temperature (Example 12, FIG. 39)) | peptide remaining ([5]; fermentation beer pH 6.5, room temperature, 248 hours, HPLC peak area relative to starting amount) [%] | stability of peptide in pH 4 buffer (negative control) ([5]; pH 4 buffer, room temperature) | half conversion time to Av3b peptide [6] [min] | knock-down effects compared to Av3b (Helicoverpa zea) | time stable in solution at 54° C. ([2]; pH 4 NaOAc buffer, 54° C.) [days] |
| --- | --- | --- | --- | --- | --- | --- | --- | --- | --- | --- | --- | --- | --- | --- | --- |
| KSCCPCYWGGCPWGQNCYPEGCGGPG [Av3bM170] | 70 | +4.6% | thermo-stable | 495±148 pmol/g and 495 ± 148 (N = 2) pmol/g | No | did not show any degradation product | degradation was not detected | 104 pmol/g | – | – | – | – | – | – | – |
| KSCCPCYWGGCPWGQNCYPEGCSGPK [Av3b, reference compound] | 69.3 | +8.3% | thermo-stable | 883 ± 25 (N = 2) pmol/g | – | showed degradation during fermentation | degradation was detected | 367 ± 166 (N = 6) pmol/g | 46 h and 46.34 h | 56 h and 56.087 h | 3.8 | no loss of the peptide; also recorded: stable in pH 4 buffer | – | – | – |
| KSCCPCYWGGCPWGQNCYPEGCSGPKVG [Av3bM165] | 80 | +4.2% | thermo-stable | 578 pmol/g | No | did not show any degradation product; also recorded: without apparent degradation products | degradation was not detected | 389 pmol/g | – | – | – | – | 5.3 | comparable knock-down effects to Av3b | – |
| KSCCPCYWGGCPWGQNCYPEGCSGPG (ends and bridges not checked; cysteine pairing not given here) [Av3bM103] | 82 | −64.1% | not thermo-stable | 879 pmol/g | No | did not show any degradation product; also recorded: prevent degradation | degradation was not detected | 518 ± 390 (N = 2) pmol/g | – | – | – | – | – | comparable knock-down effects to Av3b | 7 |
